Results on five molecules are retold here after publication PMC4941050, “Extra-coding RNAs regulate neuronal DNA methylation dynamics”.

Series [1] addresses T1, DNMT3a-CD (mouse, UniProt O88508 608-908). Nature of the series: EMSA; DNMT3a-CD 0.002-0.2 uM; value only in figure, text: low nanomolar, same as dsDNA (P=0.49); 20 mM HEPES, 40 mM KCl, 1 mM EDTA, 0.2 mM DTT, 0.1 mg/ml BSA, 0.1% Tween-20, 20% glycerol; pH not stated; 1 h at 37 C; 1 nM probe; native 4-20% PAGE. The note with it: protein: recombinant; label: 5'-Cy5.5; predicted stem-loop.

Series [2] addresses DNMT3a (in DNMT3a/DNMT3l complex);DNMT3l (human;human, UniProt Q9Y6K1;Q9UJW3 1-912;1-386, |). Nature of the series: EMSA; 0.2 uM protein; 20 mM HEPES, 40 mM KCl, 1 mM EDTA, 0.2 mM DTT, 0.1 mg/ml BSA, 0.1% Tween-20, 20% glycerol; pH not stated; 1 h at 37 C; 1 nM probe; native 4-20% PAGE. A general note: A gel shift assay detects complexes by their altered migration in electrophoresis.

The target of series [3] is T1, DNMT3a-CD. Kind of series: EMSA; binding not impaired; 20 mM HEPES, 40 mM KCl, 1 mM EDTA, 0.2 mM DTT, 0.1 mg/ml BSA, 0.1% Tween-20, 20% glycerol; pH not stated; 1 h at 37 C; 1 nM probe; native 4-20% PAGE. The note with it: protein: recombinant; label: 5'-Cy5.5; unstructured (predicted).
Series [4] deals with T1, DNMT3a-CD. Nature of the series: EMSA; 0.2 uM protein; complete binding; 20 mM HEPES, 40 mM KCl, 1 mM EDTA, 0.2 mM DTT, 0.1 mg/ml BSA, 0.1% Tween-20, 20% glycerol; pH not stated; 1 h at 37 C; 1 nM probe; native 4-20% PAGE. The note with it: protein: recombinant; label: 5'-Cy5.5; predicted stem-loop.
Series [5] has as its target T1, DNMT3a-CD. Nature of the series: competition EMSA; vs 1 nM Cy5.5-ecRNA-1; competitor 1-100 nM; 20 mM HEPES, 40 mM KCl, 1 mM EDTA, 0.2 mM DTT, 0.1 mg/ml BSA, 0.1% Tween-20, 20% glycerol; pH not stated; 1 h at 37 C; 1 nM probe; native 4-20% PAGE. The note with it: protein: recombinant; chain copies: 2; blunt.
In series [6] the target is T1, DNMT3a-CD. Kind of series: EMSA; binding not altered; 20 mM HEPES, 40 mM KCl, 1 mM EDTA, 0.2 mM DTT, 0.1 mg/ml BSA, 0.1% Tween-20, 20% glycerol; pH not stated; 1 h at 37 C; 1 nM probe; native 4-20% PAGE. The note with it: protein: recombinant; label: 5'-Cy5.5; unstructured (predicted).

T1 sequence (O88508 608-908): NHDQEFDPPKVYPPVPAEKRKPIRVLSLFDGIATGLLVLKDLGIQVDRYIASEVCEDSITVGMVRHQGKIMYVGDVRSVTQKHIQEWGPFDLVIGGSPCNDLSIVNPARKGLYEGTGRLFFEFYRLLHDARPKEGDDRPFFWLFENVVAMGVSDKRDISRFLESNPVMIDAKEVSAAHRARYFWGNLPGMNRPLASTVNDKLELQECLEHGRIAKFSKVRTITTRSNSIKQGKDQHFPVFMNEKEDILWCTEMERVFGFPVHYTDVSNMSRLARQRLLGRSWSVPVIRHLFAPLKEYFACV
Sequence of DNMT3a (in DNMT3a/DNMT3l complex);DNMT3l (Q9Y6K1 whole entry, chain 1 of 2): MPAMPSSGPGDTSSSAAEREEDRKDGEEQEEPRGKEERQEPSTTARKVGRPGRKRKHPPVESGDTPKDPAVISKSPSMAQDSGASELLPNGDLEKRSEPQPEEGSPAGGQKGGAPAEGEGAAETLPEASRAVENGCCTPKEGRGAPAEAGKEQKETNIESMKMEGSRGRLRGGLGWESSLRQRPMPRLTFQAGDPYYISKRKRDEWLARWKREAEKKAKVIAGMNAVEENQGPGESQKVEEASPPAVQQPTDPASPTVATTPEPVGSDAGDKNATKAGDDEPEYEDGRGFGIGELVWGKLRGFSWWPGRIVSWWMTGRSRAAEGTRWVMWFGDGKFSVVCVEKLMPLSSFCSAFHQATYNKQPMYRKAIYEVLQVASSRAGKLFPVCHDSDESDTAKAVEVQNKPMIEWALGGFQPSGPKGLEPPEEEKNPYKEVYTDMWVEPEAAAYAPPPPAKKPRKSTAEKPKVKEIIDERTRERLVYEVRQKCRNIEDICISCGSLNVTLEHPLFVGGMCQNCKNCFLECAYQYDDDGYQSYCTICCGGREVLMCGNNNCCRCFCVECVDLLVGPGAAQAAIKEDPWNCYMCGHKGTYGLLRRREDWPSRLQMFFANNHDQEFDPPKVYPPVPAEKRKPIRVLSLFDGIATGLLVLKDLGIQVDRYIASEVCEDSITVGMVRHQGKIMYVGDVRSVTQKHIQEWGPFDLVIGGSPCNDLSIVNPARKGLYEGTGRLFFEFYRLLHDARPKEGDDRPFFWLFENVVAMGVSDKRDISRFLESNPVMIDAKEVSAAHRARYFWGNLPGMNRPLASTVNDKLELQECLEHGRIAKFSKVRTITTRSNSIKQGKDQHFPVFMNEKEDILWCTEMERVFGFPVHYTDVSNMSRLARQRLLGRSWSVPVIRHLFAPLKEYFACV
Sequence of DNMT3a (in DNMT3a/DNMT3l complex);DNMT3l (Q9UJW3 whole entry, chain 2 of 2): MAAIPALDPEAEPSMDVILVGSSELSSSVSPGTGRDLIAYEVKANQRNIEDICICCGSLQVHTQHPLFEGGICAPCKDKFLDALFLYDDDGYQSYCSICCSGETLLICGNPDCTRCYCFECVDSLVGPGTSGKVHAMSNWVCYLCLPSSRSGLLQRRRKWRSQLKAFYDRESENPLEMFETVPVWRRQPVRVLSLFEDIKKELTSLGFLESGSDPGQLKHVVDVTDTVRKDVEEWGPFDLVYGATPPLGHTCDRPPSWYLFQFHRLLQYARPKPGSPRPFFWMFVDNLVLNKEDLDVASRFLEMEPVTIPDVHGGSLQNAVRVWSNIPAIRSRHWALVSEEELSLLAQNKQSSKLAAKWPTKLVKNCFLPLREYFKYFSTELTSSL

B1: ecRNA-1 (ssRNA)
RNA: GGGGACACGCCCUCUGUUCCCUUAU
As for B1, the binding result (with DNMT3a-CD [1]; in series [2]) was “binds” in each case.

B2: mutant ecRNA-1 (ssRNA)
RNA: GUCGACACGCCCUCUGUUCCGUUAG
As to B2, the binding result in the series with DNMT3a-CD [3] is recorded as “binds”.

B3: ecRNA-2 (ssRNA)
RNA: GUCUGUGCACCGUGUGCAUAUACAG
Take B3: the binding result (in series [2]; in the series with DNMT3a-CD [4]) was “binds” each time.

B4: ecDNA-1 unlabelled competitor (dsDNA)
DNA 1: GGGGACACGCCCTCTGTTCCCTTAT
DNA 2: ATAAGGGAACAGAGGGCGTGTCCCC
For the molecule B4, the IC50 with DNMT3a-CD [5] was > 20 fold excess over 1 nM ecRNA-1.

B5: mutant ecRNA-2 (ssRNA)
RNA: GAUGAUCCUGCCUUGAAGUGACGCU
On to B5, for which the binding result with DNMT3a-CD [6] is recorded as “binds”.
